{"source": "patent US20040043420A1", "about": "“Method of identifying conformation-sensitive binding peptides and uses thereof” (priority 2003, published 2004)", "key": {"[1]": {"target": "T1, glucocorticoid receptor (GR) (Homo sapiens, UniProt P04150)", "T1 construct": "in the yeast based system using full-length receptor; expressed in transfected cells; host or cells: yeast", "T1 sequence (P04150 1-777)": "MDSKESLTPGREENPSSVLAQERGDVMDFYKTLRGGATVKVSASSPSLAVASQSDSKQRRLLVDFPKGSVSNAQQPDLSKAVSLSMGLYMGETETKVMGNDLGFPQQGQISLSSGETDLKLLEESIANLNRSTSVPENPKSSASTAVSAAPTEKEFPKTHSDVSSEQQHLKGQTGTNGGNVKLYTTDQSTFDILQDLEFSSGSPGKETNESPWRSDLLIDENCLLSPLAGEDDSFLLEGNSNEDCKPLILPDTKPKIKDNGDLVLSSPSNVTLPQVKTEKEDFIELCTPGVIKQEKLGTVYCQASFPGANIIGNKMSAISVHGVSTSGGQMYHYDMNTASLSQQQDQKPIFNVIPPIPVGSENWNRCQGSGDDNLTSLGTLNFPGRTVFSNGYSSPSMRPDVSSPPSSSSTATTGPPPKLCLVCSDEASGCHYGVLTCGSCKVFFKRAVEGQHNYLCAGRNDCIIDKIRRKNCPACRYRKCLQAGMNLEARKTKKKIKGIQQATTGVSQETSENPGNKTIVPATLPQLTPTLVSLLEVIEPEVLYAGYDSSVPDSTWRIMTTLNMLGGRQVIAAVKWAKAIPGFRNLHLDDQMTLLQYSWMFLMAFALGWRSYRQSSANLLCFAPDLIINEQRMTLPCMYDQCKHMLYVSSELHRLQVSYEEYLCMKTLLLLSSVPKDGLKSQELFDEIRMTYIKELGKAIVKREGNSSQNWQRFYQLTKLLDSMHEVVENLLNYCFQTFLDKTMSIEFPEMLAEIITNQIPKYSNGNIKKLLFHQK", "assay": "Mammalian cell (Huh-7) based peptide/glucocorticoid receptor interaction assay, luciferase", "conditions": "all ligands (agonists, partial agonists, and antagonists)", "from_the_text": "(§1) We have performed a limited amount of in vivo screenings for peptides to GR in the yeast based system using full-length receptor and either dexamethasone or medroxyprogesterone acetate as ligands. We have a single peptide sequence that we have followed up on based on its specificity profile in yeast. This peptide was isolated on MPA liganded GR, and is termed GRMPA. Its sequence is as follows: […] (SEQ ID NO:268).\nWe have isolated numerous peptides using phage display to the GR ligand binding domain and have formatted cell based assays in mammalian cells for screening large compound sets. We have formatted the assay as stated above for 96-well plates and for 384-well plates. To format the assay to 384-well plates the number of cells per well were scaled down to 5,000 Huh-7 cells per well. Similar ratios of DNA constructs and lipection reagents were used in both assays for transfections prior to seeding the cells into the assay plates. We have also carried out a screen of a 60,000 compound set with one of the phage display isolated peptides in this mammalian cell based format. This peptide interacts with the glucocorticoid receptor in the presence of both agonists (e.g. fluticasone propionate and dexamethasone) and antagonists (RU486). For the compound screen cells were transfected in suspension with DNA constructs as described above prior to seeding 5,000 cells per well. […]"}, "[2]": {"target": "T1, glucocorticoid receptor (GR)", "assay": "Yeast-based two-hybrid test of peptide interaction with full-length glucocorticoid receptor", "assay_type": "cell-based", "from_the_text": "as §1"}}, "data": [{"sequence": "EFVARYGQLLGWRHPCS [GRMPA]", "values": [{"measurement": "Interaction with GR in mammalian cells in the presence of ligands", "setting": "[1]", "value": "interacted in the presence of all ligands"}, {"measurement": "Interaction with GR in yeast in the presence of full agonists", "setting": "[2]; fluticasone propionate and dexamethasone", "value": "not full agonists"}, {"measurement": "Interaction with GR in yeast in the presence of partial agonists and antagonists", "setting": "[2]; partial agonists MPA, cortivazol, deoxycorticosterone, antagonist RU486", "value": "interacted"}]}]}
